Assay results as given in the domain aggregation screens of Martell et al. (2025).

Assay: soluble fraction after stress (log2 fold change); higher = more stays soluble; pooled small domains, quantitative proteomics
Settings: stress: pH 4
Procedure, shortened: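 Custom libraries of small protein domains were pooled and exposed to pH 4. High-throughput quantitative proteomics then measured the log2 fold change in the amount of each domain still soluble, with higher values meaning more stayed soluble. This soluble-fraction fold change stands for aggregation propensity.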

Going from “HMISFTDLEHIEKMIENVLYTKTPLNLPPTDAKIRKIEHQIARRYGLNSESFGDEPRRFVVVYPNEERE” to “HMISKAQLFSEEELTELYRATGYQLENDPEIHREQFEALQAVRAKIEYAVPDVQEKLEQEQNLGQQ”, the “soluble fraction (log2)” value falls from 0.0997 to -1.

First: HMISKRFQVDEENSNNRVDIFLANNLDSISRGIVQQLILDGKVLVNGETVKRNHLLKTNDEVDISFEI
Second: HMISRDPYDAGAIKRHFSASGLFSSKELAHYLGKSVSTAKNVLSDLQQQGIVEMVGQGPATKYRFI
The “soluble fraction (log2)” value of the first is lower: 0.0466 for the first, 0.285 for the second.

“HMISSRDAAVIGLVENIQRAQLNAIDESSGFKHLMETYNLESKEIALLVGKSRSYVSNSLRLSK” and “HMISTVFYVDVKGEVHHPGVYQMKAENRVKDLIEAAGGFTPLADDQKLNLAQLLEDQMVIVVPKKGEEV” are within 0.2 log units of each other in “soluble fraction (log2)” value: -0.235 for the first, -0.221 for the second.

Going from “HMISVTNRTGTGLNDVKVEVFPVGRQMVFSATVFRVESEATNRFSLGELRGSDGTPFNQRVHRPESI” to “HMITAEQENILFEKASDDISNNIINKGIWTKAYSQAGGDESKQKAIYIDLLVNYYKMLIKAGEEFEDI”, the “soluble fraction (log2)” value falls from -0.07 to -2.05.

Compared with “HMITALLPGTVLIREFDGRDYHVTVATDGRFEMDGHKYPSLSAVAKHITGTQWSGPAFFGLN”, “HMITASNYFIEVERIGIETLPETLKKGHDLVVKSTSNGTNWANYQTSEGIKKVIDLYFQKLNEYANTV” is lower in “soluble fraction (log2)” value: -0.0323 for the first, -1.57 for the second.

First: HMITDSSEIEAMVDALVKENPGQAEQYKDGNMKVAGWFIGQIMKVSKGKANPQLVGDLLKKKLG
Second: HMITERVPVPDLTGMPLMEAIKTLNSSKLQYQVVGSVIEGDENRIIDQTPKPDIMVSEKSIVLLYLETYRG
The “soluble fraction (log2)” value of the first is higher: at least 0.43 for the first, -0.338 for the second.

Compared with “HMITIDADTGKRVYTRKEVADLVGASTQSIRLWEDAGAIPASVRDEGGYRYWYEEDLEAIKAYAS”, “HMITKAIELAEEAEKETVWLGVWEHNHPAQKFYQSLGFVKTDEHDFYMGNERHTDYTMTKQLK” is lower in “soluble fraction (log2)” value: -0.411 for the first, -0.958 for the second.

Compared with “HMITLKKRRQEAILEIIEKYDLSTQDELLQKLKDSGFDATQATVSRDIKELRLVKTMGANGQYKYAVT”, “HMITMADKIDTALSEMAANNEKINVSQVAKRLGISNSAIYKFNPEKIPDIQTAQKRQKHKAEAIAVGTEN” is higher in “soluble fraction (log2)” value: -0.735 for the first, 0.0504 for the second.

“HMITMWYYKKDGNIIGPASARKIASMRELGIITDSTPVSRKRNAKNWETFGGLSEKINLESSQWD” and “HMITNEDINIKKLLVVMKDTPLSANEIMDKLNIKSKETLRNMYLDPAIKKGLINLTIPDKPTSKNQKYYK” are within 0.2 log units of each other in “soluble fraction (log2)” value: 0.0852 for the first, 0.22 for the second.

Compared with “HMITNESEIERIVEAIISKNPESIAQYRSGITKVLGFLVGQVMKETKGRANPALVNRIIISKME”, “HMITSELALVKLVVKGANRVEALRVAETFRARALDVTLSSFVFELTGKPSKLDAFIGLMRSLGDTEILKR” is lower in “soluble fraction (log2)” value: 0.242 for the first, -1.02 for the second.

Compared with “HMIVEIVPSALHGERVDRIVAFILDVSRSVASGLVERGAVHVDGSVETSGKVRLVEGQEVSVDPSQVPG”, “HMIVNEQEQTFIKAMRDDDFNTILELKMKGYQPSDNVLKSLQPDISSTTFIAAAKIFQMERMLK” is higher in “soluble fraction (log2)” value: -0.528 for the first, at least 0.43 for the second.

“HMIVSVPNVRGMGESKAAAALQNRGLLVSIDYESSTSASQGEVIRQSISPGTEVTKGSSITIIIAVSPN” and “HMIVVMQPGATKEQVQAVIDRVAEFGFQTKLAPGAERMVIGVVGSPLPDTLKEALERLPGVEEVIRVSKR” are within 0.2 log units of each other in “soluble fraction (log2)” value: -0.0228 for the first, -0.0989 for the second.

Going from “HMIVVTSPQVTDERIAEIVAFIEKHGVQAHVSRGTDRTVIGIIGKADPVLAEHLRSMQGVENVIKIS” to “HMIYKLTLLRDLPEAKAGFDFYLRGGLASHDGEEWFSWVTREPIYARLYWLYVEKREEWVLVEETDI”, the “soluble fraction (log2)” value falls from -0.126 to -2.47.

Going from “HMIYMIDPNDEIAVKLDEIYQRYLNRTIDPEGLIFFYNQIRNAQMGYSDVEKRILESPEYVSIPK” to “HMIYQNVINLLKNRLNSSIYNIGDLLPSEKELAEHYDVSRNTLRKALKTLEEEGMIERRHGSGTYLRNK”, the “soluble fraction (log2)” value rises from -1.23 to 0.0262.

Compared with “HMIYWGTMVDKIYEVLSLAGKPLSLMEIYQQVKVFFPNSTKSSIEASMRLDARHRFKYDVEGHVYSLVD”, “HMIYYTEEELVKRYIDFSNYLGKKEGASDVDFKKYAVEFGIPSRDHYNRKFITLFNLKIKAGYKPIRH” is lower in “soluble fraction (log2)” value: -0.368 for the first, -1.13 for the second.

“HMKAAQDQDQAATLLQKATGVNQDQAKLAATVLFKEQSVTPIRQAIASGDYYQAYQDAKSLQQQ” and “HMKADIEQVQRAFDTLDPKNQQLVLDAMKAATAELDPNSDQFKTNTEFINDNQKALDRHAKAS” are within 0.2 log units of each other in “soluble fraction (log2)” value: 0.22 for the first, 0.0627 for the second.

“HMKAGAVFNEGDVLYPKIGGLKLMAAAGEGGKVVATLAKTDEMIYMGEEQSGFVKVESGSGSGWVKKILVA” and “HMKAGEDAVQKAVLEAVAESAAAVADYKAGSERALNFIVGKVMKKTRGKASAAEVHRLVREEVDR” are within 0.2 log units of each other in “soluble fraction (log2)” value: 0.202 for the first, 0.079 for the second.

“HMKAILHQESRSGFANATVIGGLDKFLDTNWNQLSKYIKKIETPYSDRSLEDRKIWISTILGILSTEI” and “HMKALHEEIAEKIQEQILRSNLAPGDKLDTELELAARYGVSRSTIRQALIQLESAGLIDRLHGRGTFVAD” are within 0.2 log units of each other in “soluble fraction (log2)” value: 0.136 for the first, 0.029 for the second.

Going from “HMKAPDSQYKPLTDFQTDASFQKLDAYLRNRYPAMLANAVVYDVLRTPDAISYRVNYQVDNKMITINAAVT” to “HMKAPLTFVIEGKEYEAFDQYKTGAELKQLAGIPLDTELFLSISKPYQDELIENEKQVNLARPETEYFFVK”, the “soluble fraction (log2)” value falls from 0.157 to -0.494.

First: HMKAQTVPQFVGMTMTEAEEKASELGITLIEGAVVDSVEPKDTILTQDVDEGTEITGKMEIMVTISS
Second: HMKARLRRVFQIYYGDAYSIMKALKETFPLQTIVHEPRTNSIVVDTPDEETATKIGDVVSAL
The “soluble fraction (log2)” value of the first is higher: -0.352 for the first, -0.563 for the second.

First: HMKDANIQIGKRLREARLNMNLEKSEIADVLGVTVEHYRKLEAGVMGISVDKVLTLYHKYGIDPTYLITG
Second: HMKDEGSLKVIGQMVVIGIPQSEAKRFANTYTVAQIRAALQYTQKRSEDKNASKLENVAAYFRQALVRNWG
The “soluble fraction (log2)” value of the first is lower: -0.712 for the first, at least 0.43 for the second.

“HMKDHKSKWMAKTELDSIAKNLSKKHAISLDYEEDGTRFYAGGQSPLGIGRLFTVFVAPRNGHWSDQLR” and “HMKDLIGEAKAKELALGHAKLSASDVTFIHVELDWENGRRVYDVEFYSGAKEYDYEIDAKTGEIVSFDY” are within 0.2 log units of each other in “soluble fraction (log2)” value: -0.0435 for the first, 0.00222 for the second.

“HMKDLQHLVGEKGTTVTPLRPSGIALIKGSRYDVVSEGSFIQQGVAVEVIKVEGRRVVVSPLQED” and “HMKDLSMPDVMGSSLNDAKKALTELGIMDITVRYVESGSSEGSIVGMEPPAGSKFAADGKVVLQVSSGS” are within 0.2 log units of each other in “soluble fraction (log2)” value: -0.0748 for the first, 0.0083 for the second.

First: HMKDMKISTQNILKELATNYPDQTAFRKNVIESTAKSMGYTGKDFYPMLTAETRVKIGTYDLSALLQTV
Second: HMKDPSFELMSVAESFYRSGNVDHAVYALEKYLEVYADGDYTDRAHDLLSQARKGLTYPHGYPPLQI
The “soluble fraction (log2)” value of the first is higher: -0.197 for the first, -1.33 for the second.

Compared with “HMKDRDISNAVLNILSKDSDHNYNYKQIASVLGVKDPFVRKRIVSVLAQLTKNGQLEEISRGKYQIKN”, “HMKDRNISSSVLEILSKDPDHTYNYKQIAALLGVKDAFIRKRIVTLLAQLAKDGHLDEISRGKYQIK” is higher in “soluble fraction (log2)” value: -0.694 for the first, -0.0199 for the second.

Going from “HMKDVVAPMSGRVVRLMVAAGDEVVKRQALVVVEAMKMENVLTAPKEGRIKKVPVREGMTVEVGQTLVSFE” to “HMKDYKSALQELIQSGDKRVISYHTLKETGPSHNREFEAAVKLDGNIILGVGKGKTKKEAEQNAAHEALKK”, the “soluble fraction (log2)” value rises from -0.274 to 0.165.

“HMKDYKSSLQERVQAVGGGQLIYRVNREEGPDHSKTFYMDLFLGDRLIGTGSGRNKKQAEQQAAKEAIERG” and “HMKDYKTIFQELIQKKHKTSPIYKSYEYNDMFKAEVYVNDKSFADGIGKSKKEAETDAAKKALEKIEMA” are within 0.2 log units of each other in “soluble fraction (log2)” value: 0.0469 for the first, 0.0809 for the second.

First: HMKDYQGEISVVASGERIDVYLFNYFNLFSRTKIKNHIKNGNILVNENIISPSYILKQNDKIAFNLGAPY
Second: HMKDYQGNILIQSEGDRIDKFLFKYFNSFSRTKIKNHIINGNILVNDKNTIPAYVLKINDKISYDLSTSVK
The “soluble fraction (log2)” value of the first is lower: -2.12 for the first, -0.877 for the second.

First: HMKEAITVIGGKNNITFDASAQAEIGIYSMDGVQIQKKTISDNERIDLPAGMYVVTVKTGQANVSKVVVV
Second: HMKEDSTIIERIISNLSSASLKTQKAFEYKLTDLMFRFSEGEYEWSSAMEVIREELLPFLNK
The “soluble fraction (log2)” value of the first is higher: -0.145 for the first, -0.645 for the second.

“HMKEETEMVTIPDVTGKPLTEAANLLREAKLDYLAESTGTSVTKQMPLPGAEVMVNTTVLLYTG” and “HMKEEVMVPNVVGKELSAALLEMQVKELYPKLQLKYSNFVDDKGTVLEQSPPAGSIVKAGRRINLVVSRGA” are within 0.2 log units of each other in “soluble fraction (log2)” value: 0.241 for the first, 0.0708 for the second.

“HMKEIKAPNKINAHLIEEWRSQHPTELFPEEKVDLIYYKGEEYYFVIEEKNELGEIEEWYFAYDGGIDYV” and “HMKEILTNESIIQFVKDKVSEEQIIYKINNSPIDFKLDVNSMVSLAKQNVSSTIIIAMENAMNN” are within 0.2 log units of each other in “soluble fraction (log2)” value: -0.373 for the first, -0.522 for the second.

“HMKELLQEMIMDILRAIASPNIDIKRKTLDLVLDLITPRNIDNVTGMLKTEVVKSQSENTSDVG” and “HMKELTYSDFRKAYPDIQGNLFGMAERYITALDWTEVAAKVETDEELRKERDIFYLVKTYIRKYVQ” are within 0.2 log units of each other in “soluble fraction (log2)” value: -0.572 for the first, -0.695 for the second.

Going from “HMKELVAGQTVRVHHSIGFGQTGTVTALNSLKTTLPNGLRTNTASILFQNNEKVVLPISNFDIIES” to “HMKELVEDFASRISNARQSKGWNQSELAKRMAETVNVVKSAESGKSPTDSVIKKLERVLGIILM”, the “soluble fraction (log2)” value falls from 0.403 to 0.0723.

First: HMKEQLITVYVSGAVARPGLYELPAGIRAQEAVEAAGGFTEAANHEKVNLAKKLKDGSQVNVPALK
Second: HMKEQYDLNDREQQFISLVANGLNNKEIAETLFLSEGTVRNYLSNLLDKLGLRDRTQLAIFFYQHL
The “soluble fraction (log2)” value of the first is higher: -0.107 for the first, -1.74 for the second.

In the case of “HMKERLLDPYKDFIVNYLQKYPYTPAAVMHDKLKESYPDFPKVDPKTIYNFVMLLRRDFNIPKV”, the “soluble fraction (log2)” value is reported as -0.406.
